Measurements as given in patent US20150374794A1 (Novo Nordisk, published 2015).
Numbered stars: 1 amine (or outer) side, 2 acyl side, 3 side chain; on linkers, the order of the positions; unused ones are H or OH. Square brackets hold non-standard residues; d marks the D form. Side chains are listed from the residue outwards. Ends that are not written are not given here. * marks the point of attachment. C18 diacid = O=C(O)CCCCCCCCCCCCCCCCC(=O)*; γGlu = O=C(O)[C@H](CCC(=O)[*:2])N[*:1]; Ac4c = NC1(C(=O)O)CCC1; AEEA = NCCOCCOCC(=O)O; Aib = CC(C)(N)C(=O)O

B1: N^ε28-[(4S)-4-carboxy-4-[[(4S)-4-carboxy-4-[[2-[2-[2-[[2-[2-[2-[[(4S)-4-carboxy-4-(17-carboxyheptadecanoylamino)butanoyl]amino]ethoxy]ethoxy]acetyl]amino]ethoxy … (peptide)
peptide: H[Aib]QGTFTSDLSKYLDARRAREFVQWLLK([γGlu-γGlu-AEEA-AEEA-γGlu-C18 diacid])T-NH2
modifications: N-terminus assumed
SMILES: CC(C)C[C@H](NC(=O)[C@H](Cc1ccc(O)cc1)NC(=O)[C@H](CCCCN)NC(=O)[C@H](CO)NC(=O)[C@H](CC(C)C)NC(=O)[C@H](CC(=O)O)NC(=O)[C@H](CO)NC(=O)[C@@H](NC(=O)[C@H](Cc1ccccc1)NC(=O)[C@@H](NC(=O)CNC(=O)[C@H](CCC(N)=O)NC(=O)C(C)(C)NC(=O)[C@@H](N)Cc1c[nH]cn1)[C@@H](C)O)[C@@H](C)O)C(=O)N[C@@H](CC(=O)O)C(=O)N[C@@H](C)C(=O)N[C@@H](CCCNC(=N)N)C(=O)N[C@@H](CCCNC(=N)N)C(=O)N[C@@H](C)C(=O)N[C@@H](CCCNC(=N)N)C(=O)N[C@@H](CCC(=O)O)C(=O)N[C@@H](Cc1ccccc1)C(=O)N[C@H](C(=O)N[C@@H](CCC(N)=O)C(=O)N[C@@H](Cc1c[nH]c2ccccc12)C(=O)N[C@@H](CC(C)C)C(=O)N[C@@H](CC(C)C)C(=O)N[C@@H](CCCCNC(=O)CC[C@H](NC(=O)CC[C@H](NC(=O)COCCOCCNC(=O)COCCOCCNC(=O)CC[C@H](NC(=O)CCCCCCCCCCCCCCCCC(=O)O)C(=O)O)C(=O)O)C(=O)O)C(=O)N[C@H](C(N)=O)[C@@H](C)O)C(C)C
B2: N^ε28-[(4S)-4-carboxy-4-[[(4S)-4-carboxy-4-[[2-[2-[2-[[2-[2-[2-[[(4S)-4-carboxy-4-[[(4S)-4-carboxy-4-(17-carboxyheptadecanoylamino)butanoyl]amino]butanoyl]amino … (peptide)
peptide: H[Ac4c]QGTFTSDLSKYLDLRRAREFVQWLLK([γGlu-γGlu-AEEA-AEEA-γGlu-γGlu-C18 diacid])T-NH2
modifications: N-terminus assumed
SMILES: CC(C)C[C@H](NC(=O)[C@H](CC(=O)O)NC(=O)[C@H](CC(C)C)NC(=O)[C@H](Cc1ccc(O)cc1)NC(=O)[C@H](CCCCN)NC(=O)[C@H](CO)NC(=O)[C@H](CC(C)C)NC(=O)[C@H](CC(=O)O)NC(=O)[C@H](CO)NC(=O)[C@@H](NC(=O)[C@H](Cc1ccccc1)NC(=O)[C@@H](NC(=O)CNC(=O)[C@H](CCC(N)=O)NC(=O)C1(NC(=O)[C@@H](N)Cc2c[nH]cn2)CCC1)[C@@H](C)O)[C@@H](C)O)C(=O)N[C@@H](CCCNC(=N)N)C(=O)N[C@@H](CCCNC(=N)N)C(=O)N[C@@H](C)C(=O)N[C@@H](CCCNC(=N)N)C(=O)N[C@@H](CCC(=O)O)C(=O)N[C@@H](Cc1ccccc1)C(=O)N[C@H](C(=O)N[C@@H](CCC(N)=O)C(=O)N[C@@H](Cc1c[nH]c2ccccc12)C(=O)N[C@@H](CC(C)C)C(=O)N[C@@H](CC(C)C)C(=O)N[C@@H](CCCCNC(=O)CC[C@H](NC(=O)CC[C@H](NC(=O)COCCOCCNC(=O)COCCOCCNC(=O)CC[C@H](NC(=O)CC[C@H](NC(=O)CCCCCCCCCCCCCCCCC(=O)O)C(=O)O)C(=O)O)C(=O)O)C(=O)O)C(=O)N[C@H](C(N)=O)[C@@H](C)O)C(C)C
B3: N^ε28-[(4S)-4-carboxy-4-[[(4S)-4-carboxy-4-[[2-[2-[2-[[2-[2-[2-[[(4S)-4-carboxy-4-[[(4S)-4-carboxy-4-(17-carboxyheptadecanoylamino)butanoyl]amino]butanoyl]amino … (peptide)
peptide: H[Ac4c]QGTFTSDLSKYLDLRRARDFVQWLLK([γGlu-γGlu-AEEA-AEEA-γGlu-γGlu-C18 diacid])T-NH2
modifications: N-terminus assumed
SMILES: CC(C)C[C@H](NC(=O)[C@H](CC(=O)O)NC(=O)[C@H](CC(C)C)NC(=O)[C@H](Cc1ccc(O)cc1)NC(=O)[C@H](CCCCN)NC(=O)[C@H](CO)NC(=O)[C@H](CC(C)C)NC(=O)[C@H](CC(=O)O)NC(=O)[C@H](CO)NC(=O)[C@@H](NC(=O)[C@H](Cc1ccccc1)NC(=O)[C@@H](NC(=O)CNC(=O)[C@H](CCC(N)=O)NC(=O)C1(NC(=O)[C@@H](N)Cc2c[nH]cn2)CCC1)[C@@H](C)O)[C@@H](C)O)C(=O)N[C@@H](CCCNC(=N)N)C(=O)N[C@@H](CCCNC(=N)N)C(=O)N[C@@H](C)C(=O)N[C@@H](CCCNC(=N)N)C(=O)N[C@@H](CC(=O)O)C(=O)N[C@@H](Cc1ccccc1)C(=O)N[C@H](C(=O)N[C@@H](CCC(N)=O)C(=O)N[C@@H](Cc1c[nH]c2ccccc12)C(=O)N[C@@H](CC(C)C)C(=O)N[C@@H](CC(C)C)C(=O)N[C@@H](CCCCNC(=O)CC[C@H](NC(=O)CC[C@H](NC(=O)COCCOCCNC(=O)COCCOCCNC(=O)CC[C@H](NC(=O)CC[C@H](NC(=O)CCCCCCCCCCCCCCCCC(=O)O)C(=O)O)C(=O)O)C(=O)O)C(=O)O)C(=O)N[C@H](C(N)=O)[C@@H](C)O)C(C)C
B4: N^ε28-[(4S)-4-carboxy-4-[[(4S)-4-carboxy-4-[[2-[2-[2-[[2-[2-[2-[[(4S)-4-carboxy-4-[[(4S)-4-carboxy-4-(17-carboxyheptadecanoylamino)butanoyl]amino]butanoyl]amino … (peptide)
peptide: H[Ac4c]QGTFTSDLSRYLESRRAREFVQWLLK([γGlu-γGlu-AEEA-AEEA-γGlu-γGlu-C18 diacid])T-NH2
modifications: N-terminus assumed
SMILES: CC(C)C[C@H](NC(=O)[C@H](Cc1ccc(O)cc1)NC(=O)[C@H](CCCNC(=N)N)NC(=O)[C@H](CO)NC(=O)[C@H](CC(C)C)NC(=O)[C@H](CC(=O)O)NC(=O)[C@H](CO)NC(=O)[C@@H](NC(=O)[C@H](Cc1ccccc1)NC(=O)[C@@H](NC(=O)CNC(=O)[C@H](CCC(N)=O)NC(=O)C1(NC(=O)[C@@H](N)Cc2c[nH]cn2)CCC1)[C@@H](C)O)[C@@H](C)O)C(=O)N[C@@H](CCC(=O)O)C(=O)N[C@@H](CO)C(=O)N[C@@H](CCCNC(=N)N)C(=O)N[C@@H](CCCNC(=N)N)C(=O)N[C@@H](C)C(=O)N[C@@H](CCCNC(=N)N)C(=O)N[C@@H](CCC(=O)O)C(=O)N[C@@H](Cc1ccccc1)C(=O)N[C@H](C(=O)N[C@@H](CCC(N)=O)C(=O)N[C@@H](Cc1c[nH]c2ccccc12)C(=O)N[C@@H](CC(C)C)C(=O)N[C@@H](CC(C)C)C(=O)N[C@@H](CCCCNC(=O)CC[C@H](NC(=O)CC[C@H](NC(=O)COCCOCCNC(=O)COCCOCCNC(=O)CC[C@H](NC(=O)CC[C@H](NC(=O)CCCCCCCCCCCCCCCCC(=O)O)C(=O)O)C(=O)O)C(=O)O)C(=O)O)C(=O)N[C@H](C(N)=O)[C@@H](C)O)C(C)C
B5: N^ε28-[(4S)-4-carboxy-4-[[(4S)-4-carboxy-4-[[2-[2-[2-[[2-[2-[2-[[(4S)-4-carboxy-4-[[(4S)-4-carboxy-4-(17-carboxyheptadecanoylamino)butanoyl]amino]butanoyl]amino … (peptide)
peptide: H[Ac4c]QGTFTSDLSKYLDLKRAREFVQWLLK([γGlu-γGlu-AEEA-AEEA-γGlu-γGlu-C18 diacid])T-NH2
modifications: N-terminus assumed
SMILES: CC(C)C[C@H](NC(=O)[C@H](CC(=O)O)NC(=O)[C@H](CC(C)C)NC(=O)[C@H](Cc1ccc(O)cc1)NC(=O)[C@H](CCCCN)NC(=O)[C@H](CO)NC(=O)[C@H](CC(C)C)NC(=O)[C@H](CC(=O)O)NC(=O)[C@H](CO)NC(=O)[C@@H](NC(=O)[C@H](Cc1ccccc1)NC(=O)[C@@H](NC(=O)CNC(=O)[C@H](CCC(N)=O)NC(=O)C1(NC(=O)[C@@H](N)Cc2c[nH]cn2)CCC1)[C@@H](C)O)[C@@H](C)O)C(=O)N[C@@H](CCCCN)C(=O)N[C@@H](CCCNC(=N)N)C(=O)N[C@@H](C)C(=O)N[C@@H](CCCNC(=N)N)C(=O)N[C@@H](CCC(=O)O)C(=O)N[C@@H](Cc1ccccc1)C(=O)N[C@H](C(=O)N[C@@H](CCC(N)=O)C(=O)N[C@@H](Cc1c[nH]c2ccccc12)C(=O)N[C@@H](CC(C)C)C(=O)N[C@@H](CC(C)C)C(=O)N[C@@H](CCCCNC(=O)CC[C@H](NC(=O)CC[C@H](NC(=O)COCCOCCNC(=O)COCCOCCNC(=O)CC[C@H](NC(=O)CC[C@H](NC(=O)CCCCCCCCCCCCCCCCC(=O)O)C(=O)O)C(=O)O)C(=O)O)C(=O)O)C(=O)N[C@H](C(N)=O)[C@@H](C)O)C(C)C
B6: N^ε28-[(4S)-4-carboxy-4-[[(4S)-4-carboxy-4-[[2-[2-[2-[[2-[2-[2-[[(4S)-4-carboxy-4-[[(4S)-4-carboxy-4-(17-carboxyheptadecanoylamino)butanoyl]amino]butanoyl]amino … (peptide)
peptide: H[Ac4c]QGTFTSDLSRYLDLRRARDFVQWLLK([γGlu-γGlu-AEEA-AEEA-γGlu-γGlu-C18 diacid])T-NH2
modifications: N-terminus assumed
SMILES: CC(C)C[C@H](NC(=O)[C@H](CC(=O)O)NC(=O)[C@H](CC(C)C)NC(=O)[C@H](Cc1ccc(O)cc1)NC(=O)[C@H](CCCNC(=N)N)NC(=O)[C@H](CO)NC(=O)[C@H](CC(C)C)NC(=O)[C@H](CC(=O)O)NC(=O)[C@H](CO)NC(=O)[C@@H](NC(=O)[C@H](Cc1ccccc1)NC(=O)[C@@H](NC(=O)CNC(=O)[C@H](CCC(N)=O)NC(=O)C1(NC(=O)[C@@H](N)Cc2c[nH]cn2)CCC1)[C@@H](C)O)[C@@H](C)O)C(=O)N[C@@H](CCCNC(=N)N)C(=O)N[C@@H](CCCNC(=N)N)C(=O)N[C@@H](C)C(=O)N[C@@H](CCCNC(=N)N)C(=O)N[C@@H](CC(=O)O)C(=O)N[C@@H](Cc1ccccc1)C(=O)N[C@H](C(=O)N[C@@H](CCC(N)=O)C(=O)N[C@@H](Cc1c[nH]c2ccccc12)C(=O)N[C@@H](CC(C)C)C(=O)N[C@@H](CC(C)C)C(=O)N[C@@H](CCCCNC(=O)CC[C@H](NC(=O)CC[C@H](NC(=O)COCCOCCNC(=O)COCCOCCNC(=O)CC[C@H](NC(=O)CC[C@H](NC(=O)CCCCCCCCCCCCCCCCC(=O)O)C(=O)O)C(=O)O)C(=O)O)C(=O)O)C(=O)N[C@H](C(N)=O)[C@@H](C)O)C(C)C

Experiments:
[1] = molecular target: T1, human glucagon receptor (human, UniProt P47871 26-477); assay: displacement of 125I-glucagon, membranes with human glucagon receptor, SPA
T1 construct: whole, on cells; the potency assay used whole cells (clone pLJ6'-4-25); also called GlucR; hGCGR
T1 sequence (P47871 26-477): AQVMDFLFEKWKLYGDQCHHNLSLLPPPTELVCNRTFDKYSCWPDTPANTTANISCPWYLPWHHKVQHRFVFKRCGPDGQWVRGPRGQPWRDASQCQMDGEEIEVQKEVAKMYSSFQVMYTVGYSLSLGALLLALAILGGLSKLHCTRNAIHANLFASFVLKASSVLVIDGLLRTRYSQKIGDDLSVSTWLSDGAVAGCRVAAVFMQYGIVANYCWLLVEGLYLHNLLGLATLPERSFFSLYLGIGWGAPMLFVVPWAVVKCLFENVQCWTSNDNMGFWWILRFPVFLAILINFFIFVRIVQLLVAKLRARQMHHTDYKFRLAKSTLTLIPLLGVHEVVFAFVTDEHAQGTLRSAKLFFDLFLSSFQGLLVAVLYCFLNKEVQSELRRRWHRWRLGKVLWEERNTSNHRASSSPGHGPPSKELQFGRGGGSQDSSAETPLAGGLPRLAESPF
Procedure: (§1) The receptor binding of each compound to the human glucagon receptor was measured in a displacement binding assay. […] Each derivative was added in a series of concentrations to isolated membranes containing the human glucagon receptor and displacement of the labelled ligand is monitored. The receptor binding was reported as the concentration at which half of the labelled ligand is displaced from the receptor, the IC₅₀ value.

[2] = molecular target: T2, human GLP-1 receptor (human, UniProt P43220 24-463); assay: cell-based or functional assay
[3] = molecular target: T1, human glucagon receptor; assay: cell-based or functional assay
[4] = molecular target: T2, human GLP-1 receptor; assay: displacement of 125I-GLP-1(7-36)NH2, membranes with human GLP-1R, SPA
Procedure: as §1, with “human GLP-1” for “human glucagon”, “ligand was” for “ligand is”

| Binder | IC50 [1] | EC50 GLP-1R, CRE luciferase reporter gene assay in BHK cells [2] | EC50 GlucR, CRE luciferase reporter gene assay in BHK cells [3] | IC50 [4] |
| --- | --- | --- | --- | --- |
| B1 | 5.6 nM | 0.005 nM | 0.002 nM | 0.3 nM |
| H[Aib]QGTFTSDLSKYLESKRARSFVQWLLK([γGlu-γGlu-Ser-Glu-Ser-γGlu-γGlu-C18 diacid])T-NH2 | 9.5 nM | 0.007 nM | 0.068 nM | 0.2 nM |
| B2 | 1.7 nM | 0.017 nM | 0.004 nM | 0.4 nM |
| B3 | 4.5 nM | 0.018 nM | 0.006 nM | 0.4 nM |
| B4 | 1.4 nM | 0.004 nM | 0.017 nM | 0.2 nM |
| B5 | 1.5 nM | 0.017 nM | 0.005 nM | 0.2 nM |
| B6 | 8.5 nM | 0.021 nM | 0.016 nM | 1.1 nM |
